According to the supplement of paper PMC9112550, “Optimization of the antimicrobial peptide Bac7 by deep mutational scanning” (BMC Biology, 2022):

What follows are sequences tested on Escherichia coli TOP10 (assay: shrunken log2 fold change of peptide-encoding DNA abundance (4.5 h post-induction vs induction); higher = less antimicrobial activity (less host growth inhibition)). Details: time post-induction: 4.5 h; library: site-saturation at positions 5, 18, 19, 20.
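Further: peptides expressed intracellularly from a pBAD plasmid library in pooled LB shake-flask culture, induced with 0.3% L-arabinose, DNA abundance read by NGS, three biological replicates, DESeq2 with apeglm shrinkage.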

First: RRIRLRPPRLPRPRPRPYLGPRP
Second: RRIRCRPPRLPRPRPRPCCCPRP
The “shrunken log2 fold change” value of the first is lower: -0.425 for the first, -0.224 for the second.

Going from RRIRQRPPRLPRPRPRPAEWPRP to RRIRFRPPRLPRPRPRPQHRPRP, the “shrunken log2 fold change” value rises from -0.357 to -0.0907.

First: RRIRMRPPRLPRPRPRPCLGPRP
Second: RRIRCRPPRLPRPRPRPHWQPRP
The “shrunken log2 fold change” value of the first is higher: 0.0639 for the first, -0.365 for the second.

Compared with RRIRIRPPRLPRPRPRPAEYPRP, RRIRYRPPRLPRPRPRPVLMPRP is lower in “shrunken log2 fold change” value: 0.0308 for the first, -0.83 for the second.

Going from RRIRCRPPRLPRPRPRPLWAPRP to RRIRWRPPRLPRPRPRPGNGPRP, the “shrunken log2 fold change” value falls from 0.321 to -0.0519.

Going from RRIRMRPPRLPRPRPRPPLKPRP to RRIRRRPPRLPRPRPRPMAKPRP, the “shrunken log2 fold change” value falls from 1.23 to 0.315.

Going from RRIRDRPPRLPRPRPRPWIWPRP to RRIRVRPPRLPRPRPRPYESPRP, the “shrunken log2 fold change” value falls from 0.188 to -0.0252.

RRIRWRPPRLPRPRPRPISGPRP and RRIRQRPPRLPRPRPRPCFCPRP are within 0.2 log units of each other in “shrunken log2 fold change” value: -0.12 for the first, -0.0837 for the second.

Going from RRIRFRPPRLPRPRPRPIIMPRP to RRIRWRPPRLPRPRPRPVMVPRP, the “shrunken log2 fold change” value rises from -0.799 to 0.0467.
